The test system of the data set is ABD-B homeodomain (ABD-B HD) (Drosophila). Briefly: EMSA. Background: In EMSA bound probe runs differently from free probe, usually more slowly.

What is called Kd is the concentration at which binding is half-saturated. Read a high Kd as weaker binding. For abd-A probe, the Kd was 5.48 nM.

The record behind these values is PMC4163903.
